Drawing on doi:10.1101/2020.08.09.229716, this text covers loss of FRET signal after EGF stimulation and reduction in FRET signal compared to WT and 3YF for 2 substances.

The assay has as its target Gβγ subunits (fluorescent-tagged, of the FRET Gαi activity reporter) (UniProt P62873). Nature of the assay: FRET or BRET. In general terms: BRET reads energy transfer from a luciferase to a nearby fluorophore.

“Gαi1-WT activity reporter (fluorescent-tagged Gαi) (from UniProt P63096 1-354) (natural protein)” gave a loss of FRET signal after EGF stimulation of 50%.
As for “Gαi1-Y154H activity reporter (from UniProt P63096 1-354) (natural protein)”, the reduction in FRET signal compared to WT and 3YF is 80%.
